US10925971B2, “Methods of treating PRLR positive breast cancer” (Regeneron Pharmaceuticals, Inc., priority 2016, dated 2021)
Like-named read-outs stand apart in the source and are kept apart here.

Columns and labels:
[1] = test system: Macaca fascicularis PRLR (mfPRLR.mmh; SEQ ID NO:403); assay: Surface plasmon resonance (Biacore T200), antibody-capture format; format: binding; details: analyte mfPRLR.mmh
How it was run: (§1)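 Antibodies (human IgG1 Fc) captured on an anti-human Fc sensor surface; soluble monomeric (.mmh) or dimeric (.mFc) PRLR injected as analyte. ka and kd obtained by fitting to a 1:1 binding model.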

[2] = target: T1, dimeric human PRLR (hPRLR.mFc; SEQ ID NO:402) (Homo sapiens, UniProt P16471); assay: as above; format: binding; details: analyte hPRLR.mFc
T1 construct: dimeric (hPRLR.mFc)
How it was run: as §1

[3] = target: T2, monomeric human PRLR (hPRLR.mmh; SEQ ID NO:401) (Homo sapiens, UniProt P16471); assay: as above; format: binding; details: analyte hPRLR.mmh
T2 construct: soluble monomeric (hPRLR.mmh); mmh (myc-myc-hexahistidine) (C)
How it was run: as §1

MCF7/PRLR tumors = assay: MCF7/PRLR breast cancer xenograft, tumor size and tumor growth inhibition; format: in vivo, NCr nude mice
How it was run: (§2)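 MCF7/PRLR cells in mammary fat pad of female NCr nude mice, PC3/PRLR in flank of male SCID, T47D #11 in flank of female CB17 SCID, all with estrogen pellets.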

PC3/PRLR tumors = assay: PC3/PRLR xenograft, tumor size and tumor growth inhibition; format: in vivo, SCID mice; details: for Average Tumor Growth Inhibition (%) / Final Tumor size mm^3 (mean ± SEM): SCID mice
How it was run: as §2

T47D#11 tumors = format: in vivo, CB17 SCID mice; details: for Average Tumor Growth Inhibition (%) / Final Tumor size mm^3 (mean ± SEM): T47D#11 tumors, SCID mice, Day 66
Description: Briefly, 20×10^6 MCF7/PRLR cells (ATCC HTB-22 transfected with full length hPRLR as previously described) were implanted subcutaneously into the left mammary fat pad of female NCr nude mice. In other studies, 10×10^6 PC3/PRLR (ATCC CRL-1435 transfected with full length hPRLR as previously described) were implanted subcutaneously into the left flank of male SCID mice. Additionally, 10×10^6 parental T47D (ATCC HTB-133) or 7.5×10^10 T47D #11 cells (ATCC HTB-133 serially passaged in vivo as described below) were subcutaneously implanted into the left flank of female CB17 SCID mice. All mice were obtained from Taconic (Hudson, N.Y.). Each bolus of cells was supplemented with a 90-day estrogen release pellet (1.7 mg/pellet; Innovative Research America, Sarasota Fla.). […] Control reagents included PBS vehicle, free methyl-disulfide DM1 (DM1-SMe) and isotype Control 1-DM1.
In multi-dose studies, mice were dosed once a week for a total of three weeks with tumor volumes and body weights being monitored twice weekly throughout the study. Test ADCs were dosed at 5 and/or 15 mg/kg in the multi-dose studies. In single-dose studies, mice received a single dose of test ADC, and tumor volumes and body weights were monitored twice weekly throughout the study. Test ADCs were dosed at 1, 2.5, 5, and 15 mg/kg in the single-dose studies. Average tumor size as well as tumor growth inhibition relative to the vehicle treated group were calculated for each group. Tumors were measured with calipers twice a week until the average size of the vehicle group reached 1000 mm^3. Tumor size was calculated using the formula (length×width^2)/2. Tumor growth inhibition was calculated according to the following formula: (1−((Tfinal−Tinitial)/(Cfinal−Cinitial)))*100, where T (treated group) and C (control group) represent the mean tumor mass on the day the vehicle group reached 1000 mm^3. […] Results are summarized in Tables 21-25 (multi-dose) and Table 26 (single dose). (NT=not tested in the particular experiment shown).

[4] = MCF7/PRLR tumors TRIAL #2, NCr Nude mice, multi-dose 15 mg/kg, Day 63
[5] = PC3/PRLR tumors TRIAL #2, multi-dose 15 mg/kg, Day 55
[6] = MCF7/PRLR tumors TRIAL #1, NCr Nude mice, multi-dose 5 mg/kg, Day 52
[7] = MCF7/PRLR tumors TRIAL #1, NCr Nude mice, multi-dose 15 mg/kg, Day 52
[8] = MCF7/PRLR tumors TRIAL #2, NCr Nude mice, multi-dose 5 mg/kg, Day 63
[9] = PC3/PRLR tumors TRIAL #1, multi-dose 15 mg/kg, Day 63
[10] = PC3/PRLR tumors TRIAL #2, multi-dose 5 mg/kg, Day 55

T2 sequence (P16471 with tags, fused parts or gaps): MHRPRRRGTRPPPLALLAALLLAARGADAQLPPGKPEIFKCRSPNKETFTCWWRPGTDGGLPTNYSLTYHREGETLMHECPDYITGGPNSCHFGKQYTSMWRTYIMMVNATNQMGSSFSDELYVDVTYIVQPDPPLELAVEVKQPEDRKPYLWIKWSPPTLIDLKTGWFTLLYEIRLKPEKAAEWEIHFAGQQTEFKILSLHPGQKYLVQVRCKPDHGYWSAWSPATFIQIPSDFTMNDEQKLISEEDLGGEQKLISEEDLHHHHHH
T1 sequence (P16471 with tags, fused parts or gaps): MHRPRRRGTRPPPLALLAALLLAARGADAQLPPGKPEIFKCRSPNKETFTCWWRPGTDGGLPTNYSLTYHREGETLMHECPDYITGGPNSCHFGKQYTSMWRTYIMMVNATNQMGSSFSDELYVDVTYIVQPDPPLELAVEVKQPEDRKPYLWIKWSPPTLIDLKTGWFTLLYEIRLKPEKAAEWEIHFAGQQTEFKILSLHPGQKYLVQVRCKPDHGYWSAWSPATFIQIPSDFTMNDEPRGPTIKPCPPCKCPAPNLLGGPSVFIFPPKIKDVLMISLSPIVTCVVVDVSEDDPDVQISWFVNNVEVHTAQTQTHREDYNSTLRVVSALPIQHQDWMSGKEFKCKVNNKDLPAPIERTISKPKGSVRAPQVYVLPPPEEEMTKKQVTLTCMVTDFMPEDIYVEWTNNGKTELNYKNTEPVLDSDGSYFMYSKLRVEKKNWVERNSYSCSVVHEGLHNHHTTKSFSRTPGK
Macaca fascicularis PRLR (mfPRLR.mmh; SEQ ID NO:403), sequence (as listed by the source): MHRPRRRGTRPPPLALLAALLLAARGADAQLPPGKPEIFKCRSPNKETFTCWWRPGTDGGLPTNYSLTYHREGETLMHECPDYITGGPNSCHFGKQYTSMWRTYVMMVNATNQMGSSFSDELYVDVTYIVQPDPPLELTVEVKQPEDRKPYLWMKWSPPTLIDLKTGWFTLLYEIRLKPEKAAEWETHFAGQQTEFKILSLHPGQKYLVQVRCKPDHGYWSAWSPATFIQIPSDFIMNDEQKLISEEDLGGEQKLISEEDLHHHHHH

| Molecule | ka ([1]; 25° C.) [M/s] | kd ([1]; 25° C.) [s⁻¹] | ka ([1]; 37° C.) [M/s] | kd ([1]; 37° C.) [s⁻¹] | ka ([2]; 25° C.) [M/s] | kd ([2]; 25° C.) [s⁻¹] | ka ([2]; 37° C.) [M/s] | kd ([2]; 37° C.) [s⁻¹] | ka ([3]; 25° C.) [M/s] | kd ([3]; 25° C.) [s⁻¹] | ka ([3]; 37° C.) [M/s] | kd ([3]; 37° C.) [s⁻¹] | Average Tumor Growth Inhibition (%) (MCF7/PRLR tumors; [4]) | Final Tumor size mm^3 (mean ± SEM) (MCF7/PRLR tumors; [4]) [mm^3] | Average Tumor Growth Inhibition (%) (PC3/PRLR tumors; [5]) | Final Tumor size mm^3 (mean ± SEM) (PC3/PRLR tumors; [5]) [mm^3] | Average Tumor Growth Inhibition (%) (T47D#11 tumors; multi-dose 15 mg/kg) | Final Tumor size mm^3 (mean ± SEM) (T47D#11 tumors; multi-dose 15 mg/kg) [mm^3] | Average Tumor Growth Inhibition (%) (MCF7/PRLR tumors; [7]) | Final Tumor size mm^3 (mean ± SEM) (MCF7/PRLR tumors; [7]) [mm^3] | further results |
| --- | --- | --- | --- | --- | --- | --- | --- | --- | --- | --- | --- | --- | --- | --- | --- | --- | --- | --- | --- | --- | --- |
| H1H6782P: fully human anti-PRLR antibody, non-blocking; HCVR/LCVR SEQ ID NOs 66/74 (antibody, V domains shown) VH: EVQLVESGGGLVQPGRSLRLSCAASGFTFDDYAMHWVRQAPGKGLEWVSGIIWNSGHIGYGDSVKGRFTISRDNAKKSLYLQMNSLRAEDTALYYCARDSGRYQSYFDYWGQGTLVTVSS VL: DIQMTQSPSTLSASVGDRVTITCRASHIISSWLAWYQQKPGKAPKVLIFKASSLESGVPSRFSGSGSGTEFTLTISSLQPDDFATYYCQQYNTYSRTFGQGTKVEIK | 266000 | 0.000279 | 385000 | 0.000767 | 317000 | 7.13e-05 | 598000 | 0.00013 | 360000 | 0.000247 | 557000 | 0.000716 | 88 | 300 ± 83 | 6 | 1154 ± 212 | −29 | 1537 ± 111 | – | – | – |
| H1H6765P: fully human anti-PRLR antibody, human IgG1 Fc; HCVR/LCVR SEQ ID NOs 18/26 (antibody, V domains shown) VH: EVQLVESGGGVVRPGGSLRLSCVGSGFSFDDHGMNWVRQGPGKGLEWVSGFNWNGGSTNYAESVKGRFTISRDNARNSLFLQMNSLRAEDTALYYCVRGRSGWFNDAFDVWGPGTMVTVSS VL: EIVLTQSPGTLSLSPGERATLSCRASQTINSNYLAWYRQKPGQTPRLLIYGTSSRATGIPDRFSGSGSGTDFSLTISRLEPEDFAVFYCQQYAGLPTFGPGTKVDIK | 527000 | 0.000134 | 1.06e+06 | 5.37e-05 | 869000 | 3.41e-05 | 801000 | 0.000103 | 907000 | 0.000113 | 1.25e+06 | 0.000366 | 19 | 737 ± 182 | – | 1208 ± 72 | −3 | 1278 ± 164 | – | – | – |
| H1H6958N2-DM1: anti-PRLR antibody H1H6958N2 conjugated to the maytansinoid DM1 through an SMCC linker (conjugate) VH: QVQLVESGGGVVQPGRSLRLSCGASGFTFRNYGMQWVRQGPGKGLEWVTLISFDGNDKYYADSVKGRFTISRDNSKNTLFLQMNSLRTEDTAVYYCARGGDFDYWGQGTLVTVSS VL: DIQMTQSPSSLSASVGDRVTITCRASQDIRKDLGWYQQKPGKAPKRLIYAASSLHSGVPSRFSGSGSGTEFTLTISSLQPEDFATYYCLQHNSYPMYTFGQGTKLEIK | – | – | – | – | – | – | – | – | – | – | – | – | 137 | 0 ± 0 | 94 | 230 ± 22 | 112 | 44 ± 5 | 133 | 0 ± 0 | Average Tumor Growth Inhibition (%) (MCF7/PRLR tumors; [6]): 128%; Final Tumor size mm^3 (mean ± SEM) (MCF7/PRLR tumors; [6]): 51 ± 33 mm^3; Average Tumor Growth Inhibition (%) (MCF7/PRLR tumors; [8]): 116%; Final Tumor size mm^3 (mean ± SEM) (MCF7/PRLR tumors; [8]): 117 ± 10 mm^3; MCF7/PRLR tumor growth (MCF7/PRLR tumors; first multi-dose trial, 5 and 15 mg/kg): potently inhibited MCF7/PRLR tumor growth; tumor volume relative to vehicle control tumors (MCF7/PRLR tumors; single dose 1 mg/kg): significant decrease in tumor volume; Final Tumor size mm^3 (mean ± SEM) (PC3/PRLR tumors; PC3/PRLR tumors TRIAL #1, multi-dose 5 mg/kg, Day 63): 1247 ± 171 mm^3; Average Tumor Growth Inhibition (%) (PC3/PRLR tumors; [9]): 46%; Final Tumor size mm^3 (mean ± SEM) (PC3/PRLR tumors; [9]): 808 ± 83 mm^3; Average Tumor Growth Inhibition (%) (PC3/PRLR tumors; [10]): 61%; Final Tumor size mm^3 (mean ± SEM) (PC3/PRLR tumors; [10]): 566 ± 63 mm^3; PC3/PRLR tumor growth (PC3/PRLR tumors; multi-dose, especially at 15 mg/kg): demonstrated inhibition of tumor growth; Average Tumor Growth Inhibition (%) (T47D#11 tumors; multi-dose 5 mg/kg): 102%; Final Tumor size mm^3 (mean ± SEM) (T47D#11 tumors; multi-dose 5 mg/kg): 168 ± 19 mm^3; T47D #11 tumor growth (T47D#11 tumors; repeat dosing 5 and 15 mg/kg): potently inhibited tumor growth |
| H1H6958N2: anti-PRLR antibody, receptor blocking, human IgG1 Fc form of H2M6958N2 of Table 1; HCVR/LCVR SEQ ID NOs 290/298 (antibody, V domains shown) VH: QVQLVESGGGVVQPGRSLRLSCGASGFTFRNYGMQWVRQGPGKGLEWVTLISFDGNDKYYADSVKGRFTISRDNSKNTLFLQMNSLRTEDTAVYYCARGGDFDYWGQGTLVTVSS VL: DIQMTQSPSSLSASVGDRVTITCRASQDIRKDLGWYQQKPGKAPKRLIYAASSLHSGVPSRFSGSGSGTEFTLTISSLQPEDFATYYCLQHNSYPMYTFGQGTKLEIK | 195000 | 0.00028 | 328000 | 0.00134 | 422000 | 3.66e-05 | 829000 | 0.000139 | 233000 | 0.000272 | 413000 | 0.00131 | 17 | 766 ± 128 | 28 | 917 ± 253 | −3 | 1259 ± 122 | 74 | 483 ± 46 | Final Tumor size mm^3 (mean ± SEM) (MCF7/PRLR tumors; MCF7/PRLR tumors, single dose 15 mg/kg, Day 55): 703 ± 160 mm^3; Average Tumor Growth Inhibition (%) (PC3/PRLR tumors; [9]): −19%; Final Tumor size mm^3 (mean ± SEM) (PC3/PRLR tumors; [9]): 1507 ± 106 mm^3 |
